Patent publication US20240116985A1, “STAPLED PEPTIDES AND METHODS THEREOF” (priority 2020, published 2024)
Starred links: 1 amine or outer side, 2 acyl side, 3 side chain; linkers in the order of their positions; H or OH if unused. Positions of bridges follow the written chain, without caps; N, C: chain ends. Non-standard residues stand in square brackets, D forms with d. Primed or numbered codes have the meaning given here. *: point of attachment. (SO2MorphCH2)TriAzDap = (S)-2-amino-3-(4-((1,1-dioxidothiomorpholino)methyl)-1H-1,2,3-triazol-1-yl)propanoic acid, O=C([C@H](Cn1cc(CN2CCS(=O)(=O)CC2)nn1)N[*:1])[*:2]; (CH2Ppz)TriAzDap = (S)-2-amino-3-(4-(piperazin-1-ylmethyl)-1H-1,2,3-triazol-1-yl)propanoic acid, O=C([C@H](Cn1cc(CN2CCN([*:3])CC2)nn1)N[*:1])[*:2]; PyrS2(3) = (S)-3-amino-1-((pent-4-en-1-yloxy)carbonyl)pyrrolidine-3-carboxylic acid, stapling residue, C=CCCCOC(=O)N1CC[C@@](N[*:1])(C(=O)[*:2])C1; PyrS2″ = (S)-3-amino-1-((pent-4-en-1-yloxy)carbonyl)pyrrolidine-3-carboxylic acid (stapling residue), C=CCCCOC(=O)N1CC[C@@](N[*:1])(C(=O)[*:2])C1; (CH2NMe2)TriAzDap = (S)-2-amino-3-(4-((dimethylamino)methyl)-1H-1,2,3-triazol-1-yl)propanoic acid, CN(C)Cc1cn(C[C@H](N[*:1])C(=O)[*:2])nn1; (MorphCH2)TriAzDap = (S)-2-amino-3-(4-(morpholinomethyl)-1H-1,2,3-triazol-1-yl)propanoic acid, O=C([C@H](Cn1cc(CN2CCOCC2)nn1)N[*:1])[*:2]; B5(18) = 2,2-bis(4-pentenyl)glycine (2-amino-2-(pent-4-en-1-yl)hept-6-enoic acid), stitching residue, C=CCCCC(CCCC=C)(N[*:1])C(=O)[*:2]; B5(4) = 2,2-bis(4-pentenyl)glycine = 2-amino-2-(pent-4-en-1-yl)hept-6-enoic acid (stitching residue), C=CCCCC(CCCC=C)(N[*:1])C(=O)[*:2]; B5(5) = 2,2-bis(4-pentenyl)glycine, 2-amino-2-(pent-4-en-1-yl)hept-6-enoic acid (stitching residue), C=CCCCC(CCCC=C)(N[*:1])C(=O)[*:2]; TfeGA = (S)-2-amino-3-((carboxymethyl)(2,2,2-trifluoroethyl)amino)propanoic acid, O=C([C@H](CN(CC(=O)[*:3])CC(F)(F)F)N[*:1])[*:2]; PyrS2 = (S)-3-amino-1-((pent-4-en-1-yloxy)carbonyl)pyrrolidine-3-carboxylic acid, C=CCCCOC(=O)N1CC[C@@](N[*:1])(C(=O)[*:2])C1; PyrS = (S)-1-((allyloxy)carbonyl)-3-aminopyrrolidine-3-carboxylic acid, C=CCOC(=O)N1CC[C@@](N[*:1])(C(=O)[*:2])C1; B5(19) = 2-amino-2-(pent-4-en-1-yl)hept-6-enoic acid (bis(4-pentenyl)glycine), C=CCCCC(CCCC=C)(N[*:1])C(=O)[*:2]; MorphAsn = (S)-2-amino-4-morpholino-4-oxobutanoic acid, O=C(C[C@H](N[*:1])C(=O)[*:2])N1CCOCC1; B5(3) = 2,2-bis(4-pentenyl)glycine (stitching residue), C=CCCCC(CCCC=C)(N[*:1])C(=O)[*:2]; B5 = 2-amino-2-(pent-4-en-1-yl)hept-6-enoic acid, C=CCCCC(CCCC=C)(N[*:1])C(=O)[*:2]; B6 = 2-amino-2-(hex-5-en-1-yl)oct-7-enoic acid, C=CCCCCC(CCCCC=C)(N[*:1])C(=O)[*:2]; Me2Asn = listed as N4-methyl-L-asparagine, CNC(=O)C[C@H](N[*:1])C(=O)[*:2]; MeAsn = N4-methyl-L-asparagine, CNC(=O)C[C@H](N[*:1])C(=O)[*:2]; MeGln = N5-methyl-L-glutamine, CNC(=O)CC[C@H](N[*:1])C(=O)[*:2]; Phe(F5) = N[C@@H](Cc1c(F)c(F)c(F)c(F)c1F)C(=O)O; Phe(3-COOH) = N[C@@H](Cc1cccc(C(=O)O)c1)C(=O)O; Phe(2-CF3) = N[C@@H](Cc1ccccc1C(F)(F)F)C(=O)O; Phe(2-Cl) = N[C@@H](Cc1ccccc1Cl)C(=O)O; Bta = N[C@@H](Cc1csc2ccccc12)C(=O)O; Isobutyloxycarbonyl = CC(C)COC(=O)*; αAllylPro = C=CC[C@@]1(C(=O)O)CCCN1; tBuAla = CC(C)(C)C[C@H](N)C(=O)O; 3Thi = N[C@@H](Cc1ccsc1)C(=O)O; Cha = N[C@@H](CC1CCCCC1)C(=O)O; Butoxycarbonyl = CCCCOC(=O)*; 4ClBztA = not defined here; hSer = N[C@@H](CCO)C(=O)O; Ac5c = NC1(C(=O)O)CCCC1; Ac3c = NC1(C(=O)O)CC1; Aib = CC(C)(N)C(=O)O; Moc = COC(=O)*

B1: I-1793 (peptide)
peptide: Ac-[αAllylPro]D[tBuAla][B5(19)]DHAAF[hSer][PyrS2][3Thi][Bta]Q-NH2
modifications: staple 1-4, 4-11; not fully specified; printed as Ac-PL3-Asp-Npg-B5-Asp-His-Ala-Ala-Phe-Hse-PyrS2-3Thi-BztA-Gln-NH2
B2: I-1794 (peptide)
peptide: Ac-[αAllylPro]D[tBuAla][B5(3)]DHAAF[hSer][PyrS2″][3Thi][Bta]Q-NH2
modifications: staple 1-4, 4-11; not fully specified; printed as Ac-PL3-Asp-Npg-B5-Asp-His-Ala-Ala-Phe-Hse-PyrS2-3Thi-BztA-Gln-NH2

What follows are binders tested against full-length beta-Catenin (Uniprot ID P35222) (Homo sapiens (Human)) (UniProt P35222) (assay: fluorescence polarization competition; 10 nM full-length beta-catenin, competitor 10 nM 5FAM-TCF4(10-53)).
Sequence of full-length beta-Catenin (Uniprot ID P35222) (Homo sapiens (Human)) (P35222 whole entry): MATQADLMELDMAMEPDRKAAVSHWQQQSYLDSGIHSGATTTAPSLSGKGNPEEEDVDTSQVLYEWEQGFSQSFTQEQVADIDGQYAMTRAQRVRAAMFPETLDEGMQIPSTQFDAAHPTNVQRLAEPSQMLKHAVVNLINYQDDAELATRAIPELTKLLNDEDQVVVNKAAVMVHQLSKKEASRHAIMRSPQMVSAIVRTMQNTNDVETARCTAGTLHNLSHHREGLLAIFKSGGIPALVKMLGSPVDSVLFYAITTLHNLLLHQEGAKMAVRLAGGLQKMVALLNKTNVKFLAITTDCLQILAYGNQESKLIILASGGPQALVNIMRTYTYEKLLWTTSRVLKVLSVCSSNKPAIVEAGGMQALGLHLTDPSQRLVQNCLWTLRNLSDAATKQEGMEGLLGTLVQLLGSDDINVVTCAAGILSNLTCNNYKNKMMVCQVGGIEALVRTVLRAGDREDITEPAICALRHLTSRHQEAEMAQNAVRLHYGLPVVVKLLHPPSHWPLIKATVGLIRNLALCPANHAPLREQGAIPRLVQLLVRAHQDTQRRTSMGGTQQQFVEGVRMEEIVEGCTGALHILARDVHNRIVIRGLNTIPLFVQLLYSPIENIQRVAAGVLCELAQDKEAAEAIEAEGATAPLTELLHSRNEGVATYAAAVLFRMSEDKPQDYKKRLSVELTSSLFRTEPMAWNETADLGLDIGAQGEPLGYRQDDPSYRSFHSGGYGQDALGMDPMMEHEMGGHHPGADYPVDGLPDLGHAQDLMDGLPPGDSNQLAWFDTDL

Compared with Ac-[αAllylPro]D[tBuAla][B5(5)]D[TfeGA]AA[(MorphCH2)TriAzDap]L[PyrS2″][3Thi][Bta]Q-NH2 (staple 1-4, 4-11; also: separately listed staple isomer composition) [I-1858], Ac-[αAllylPro]D[tBuAla][B5(5)]D[TfeGA]AA[(CH2Ppz)TriAzDap]L[PyrS2″][3Thi][Bta]Q-NH2 (staple 1-4, 4-11; also: separately listed staple isomer composition) [I-1857] is 3.6-fold higher in IC50: 1110 nM for the first, 4020 nM for the second. The first is the more potent here.

Going from Ac-[αAllylPro]D[tBuAla][B5(4)]NT[Ac3c]AFN[PyrS2″][3Thi][Bta]Q-NH2 (staple 1-4, 4-11) [I-2492] to Ac-[αAllylPro]D[tBuAla][B5(4)]NT[Ac5c]AFN[PyrS2″][3Thi][Bta]Q-NH2 (staple 1-4, 4-11) [I-2493], the IC50 rises from 174 nM to 267 nM (1.5-fold).

Compared with Ac-[αAllylPro]D[tBuAla][B5]NT[Aib]AFN[PyrS2][3Thi][Bta][MeAsn]-NH2 (staple 1-4, 4-11) [I-2495], Ac-[αAllylPro]N[Cha][B5]DQ[MeGln]AFL[PyrS2]F[Bta][MorphAsn]-NH2 (staple 1-4, 4-11) [I-2502] is 2.3-fold higher in IC50: 95 nM for the first, 214 nM for the second. The first is the more potent here.

Compared with Ac-[αAllylPro]D[tBuAla][B5(18)]D[Phe(3-COOH)]AAFA[PyrS2(3)][Phe(2-Cl)][Bta]S-NH2 (staple 1-4, 4-11) [I-1849], Ac-[αAllylPro]D[tBuAla][B5]NT[Aib]AF[Me2Asn][PyrS2][3Thi][Bta]N-NH2 (staple 1-4, 4-11) [I-2496] is 5.6-fold higher in IC50: 19 nM for the first, 106 nM for the second. The first is the more potent here.

First: Ac-[αAllylPro]D[tBuAla][B5(18)]D[Phe(3-COOH)]AAFV[PyrS2(3)][Phe(2-Cl)][Bta]S-NH2 (staple 1-4, 4-11) [I-1850]
Second: Ac-[αAllylPro]D[tBuAla][B6]D[Phe(3-COOH)]QAFL[PyrS][Phe(2-CF3)][Bta]A-NH2 (staple 1-4, 4-11; also: later-eluting staple isomer composition) [I-2507]
The IC50 of the first is 9.9-fold lower: 17 nM for the first, 168 nM for the second. The first is the more potent here.

Going from Ac-[αAllylPro]D[tBuAla][B5(4)]D[Phe(3-COOH)]QAFL[PyrS2″][Phe(2-CF3)][7ClBztA]A-NH2 (staple 1-4, 4-11) [I-2487] to Ac-[αAllylPro]N[Cha][B5]DQTAFL[PyrS2]F[Bta][MorphAsn]-NH2 (staple 1-4, 4-11) [I-2503], the IC50 rises from 36 nM to 1310 nM (36-fold).

Going from Ac-[αAllylPro]D[tBuAla][B5]NT[Aib]AF[MeAsn][PyrS2][3Thi][Bta]N-NH2 (staple 1-4, 4-11) [I-2497] to Ac-[αAllylPro]D[tBuAla][B5(4)]D[Phe(3-COOH)]QAFL[PyrS2″][Phe(2-CF3)][7FBztA]A-NH2 (staple 1-4, 4-11) [I-2489], the IC50 falls from 105 nM to 29 nM (3.6-fold). The second is the more potent here.

Compared with Ac-[αAllylPro]D[tBuAla][B5(18)]D[Phe(3-COOH)]AAFL[PyrS2(3)][Phe(2-Cl)][Bta]-NH2 (staple 1-4, 4-11) [I-1852], Ac-[αAllylPro]N[Cha][B5]DQ[Me2Gln]AFL[PyrS2]F[Bta][MorphAsn]-NH2 (staple 1-4, 4-11) [I-2501] is 3.2-fold higher in IC50: 48 nM for the first, 154 nM for the second.

First: Ac-[αAllylPro]D[tBuAla][B5(5)]D[TfeGA]AA[(CH2NMe2)TriAzDap]L[PyrS2″][3Thi][Bta]Q-NH2 (staple 1-4, 4-11; also: separately listed staple isomer composition) [I-1855]
Second: Ac-[αAllylPro]D[tBuAla][B6]D[Phe(3-COOH)]QAFL[PyrS][Phe(2-CF3)][Bta]A-NH2 (staple 1-4, 4-11; also: earlier-eluting staple isomer composition) [I-2506]
The IC50 of the first is 2.6-fold higher: 849 nM for the first, 332 nM for the second.

Compared with Ac-[αAllylPro]D[tBuAla][B5(4)]D[Phe(3-COOH)]QAFL[PyrS2″][Phe(2-CF3)][4ClBztA]A-NH2 (staple 1-4, 4-11; reading uncertain) [I-2491], Ac-[αAllylPro]N[Cha][B5]DQ[hSer]AFL[PyrS2]F[Bta][MorphAsn]-NH2 (staple 1-4, 4-11) [I-2498] is 9.2-fold higher in IC50: 49 nM for the first, 449 nM for the second. The first is the more potent here.

First: Ac-[αAllylPro]D[tBuAla][B5(5)]D[TfeGA]AA[(MorphCH2)TriAzDap]L[PyrS2″][3Thi][Bta]Q-NH2 (staple 1-4, 4-11; also: separately listed staple isomer composition) [I-1859]
Second: Ac-[αAllylPro]N[Cha][B5]DQQAFL[PyrS2]F[Bta][MorphAsn]-NH2 (staple 1-4, 4-11) [I-2504]
The IC50 of the first is 5.3-fold higher: 1110 nM for the first, 210 nM for the second.

Going from Ac-[αAllylPro]N[tBuAla][B5(18)]D[Phe(3-COOH)]AAFL[PyrS2(3)][Phe(2-Cl)][Bta]S-NH2 (staple 1-4, 4-11) [I-1853] to Ac-[αAllylPro]D[tBuAla][B5(18)]D[Phe(3-COOH)]AAFL[PyrS2(3)][Phe(2-Cl)][Bta]A-NH2 (staple 1-4, 4-11) [I-1851], the IC50 falls from 114 nM to 25 nM (4.6-fold). The second is the more potent here.

Going from Ac-[αAllylPro]D[tBuAla][B5(5)]D[TfeGA]AA[(SO2MorphCH2)TriAzDap]L[PyrS2″][3Thi][Bta]Q-NH2 (staple 1-4, 4-11) [I-1860] to Ac-[αAllylPro]D[tBuAla][B5]NT[Aib]AFN[PyrS2][3Thi][Bta][Me2Asn]-NH2 (staple 1-4, 4-11) [I-2494], the IC50 falls from 512 nM to 102 nM (5-fold). The second is the more potent here.

What follows are binders tested against full-length beta-Catenin (Uniprot ID P35222) (Homo sapiens (Human)) (UniProt P35222) (assay: fluorescence polarization competition against 5FAM-TCF4 10-53 on full-length beta-catenin).

Compared with Ac-[αAllylPro]D[tBuAla][B5(19)]DWAAFN[PyrS2][3Thi][Bta]Q-NH2 (staple 1-4, 4-11) [I-1788], Ac-[αAllylPro]D[tBuAla][B5(19)]DWAAF[hSer][PyrS2][3Thi][Bta]Q-NH2 (staple 1-4, 4-11) [I-1789] is 3.2-fold higher in IC50: 58 nM for the first, 183 nM for the second.

First: Ac-[αAllylPro]D[tBuAla][B5(19)]D[Phe(F5)]AAFL[PyrS2][3Thi][Bta]Q-NH2 (staple 1-4, 4-11) [I-1792]
Second: Moc-[αAllylPro]D[tBuAla][B5(4)]DDAAFQ[PyrS2″][3Thi][Bta]H-NH2 (staple 1-4, 4-11) [I-2362]
The IC50 of the first is 14-fold higher: 935 nM for the first, 66 nM for the second. The second is the more potent here.

First: {3‑(allyloxy)benzoyl}-PD[tBuAla][B5(5)]D[TfeGA]AAFL[PyrS2″][3Thi][Bta]Q-NH2 (staple 4-11, N-4; also: -CH=CH- in each staple reduced to -CH2-CH2-) [I-2377]
Second: B1
The IC50 of the first is 49-fold higher: 978 nM for the first, 20 nM for the second. The second is the more potent here.

Going from Ac-[αAllylPro]D[tBuAla][B5(19)]D[Phe(F5)]AAF[hSer][PyrS2][3Thi][Bta]Q-NH2 (staple 1-4, 4-11) [I-1791] to B2, the IC50 falls from 182 nM to 52 nM (3.5-fold). The second is the more potent here.

Going from Isobutyloxycarbonyl-[αAllylPro]D[tBuAla][B5(4)]DDAAFQ[PyrS2″][3Thi][Bta]H-NH2 (staple 1-4, 4-11) [I-2364] to Butoxycarbonyl-[αAllylPro]D[tBuAla][B5(4)]DDAAFQ[PyrS2″][3Thi][Bta]H-NH2 (staple 1-4, 4-11) [I-2363], the IC50 falls from 116 nM to 44 nM (2.6-fold).
